Here are results for 44 variants from the Human Domainome abundance scans (Beltran et al. 2025).

± gives the uncertainty stated by the source.

To fix the notation:
B1: Kinesin-like protein KIF16B, residues 1213 to 1273; numbered along this chain, Q96L93 (parent)
chain: ETWTVFRRYSRFREMHKTLKLKYAELAALEFPPKKLFGNKDERVIAERRSHLEKYLRDFFS

Variants of B1 are the subject of the series. Briefly: abundance fitness (aPCA) (normalised: wild type 0, dead -1); higher = more abundant; growth selection in yeast, the domain comes from the species named. Conditions: Homo sapiens.
With ETWTAFRRYSRFREMHKTLKLKYAELAALEFPPKKLFGNKDERVIAERRSHLEKYLRDFFS [V5A], the abundance fitness is 0.161 ± 0.048.

On to ETWTDFRRYSRFREMHKTLKLKYAELAALEFPPKKLFGNKDERVIAERRSHLEKYLRDFFS [V5D], for which the abundance fitness is -0.156 ± 0.11.

As for ETWTQFRRYSRFREMHKTLKLKYAELAALEFPPKKLFGNKDERVIAERRSHLEKYLRDFFS [V5Q], the abundance fitness is -0.093 ± 0.05.

Regarding ETWTVFRKYSRFREMHKTLKLKYAELAALEFPPKKLFGNKDERVIAERRSHLEKYLRDFFS [R8K], the abundance fitness turned out to be 0.295 ± 0.055.

For ETWTVFRHYSRFREMHKTLKLKYAELAALEFPPKKLFGNKDERVIAERRSHLEKYLRDFFS [R8H], the abundance fitness is -0.198 ± 0.33.

With ETWTVFRCYSRFREMHKTLKLKYAELAALEFPPKKLFGNKDERVIAERRSHLEKYLRDFFS [R8C], the abundance fitness stood at 0.282 ± 0.056.

In the case of ETWTVFREYSRFREMHKTLKLKYAELAALEFPPKKLFGNKDERVIAERRSHLEKYLRDFFS [R8E], the abundance fitness was -0.494 ± 0.085.

Consider ETWTVFRAYSRFREMHKTLKLKYAELAALEFPPKKLFGNKDERVIAERRSHLEKYLRDFFS [R8A], for which the abundance fitness was found to be 0.334 ± 0.083.

Turning to ETWTVFRGYSRFREMHKTLKLKYAELAALEFPPKKLFGNKDERVIAERRSHLEKYLRDFFS [R8G], the abundance fitness came to 0.097 ± 0.046.

With ETWTVFRDYSRFREMHKTLKLKYAELAALEFPPKKLFGNKDERVIAERRSHLEKYLRDFFS [R8D], the abundance fitness is -0.271 ± 0.13.

With ETWTVFRIYSRFREMHKTLKLKYAELAALEFPPKKLFGNKDERVIAERRSHLEKYLRDFFS [R8I], the abundance fitness was 0.37 ± 0.076.

With ETWLVFRRYSRFREMHKTLKLKYAELAALEFPPKKLFGNKDERVIAERRSHLEKYLRDFFS [T4L], the abundance fitness is -0.318 ± 0.045.

Regarding ETWFVFRRYSRFREMHKTLKLKYAELAALEFPPKKLFGNKDERVIAERRSHLEKYLRDFFS [T4F], the abundance fitness was -0.124 ± 0.057.

Take ETWGVFRRYSRFREMHKTLKLKYAELAALEFPPKKLFGNKDERVIAERRSHLEKYLRDFFS [T4G]: the abundance fitness is 0.085 ± 0.046.

On to ETWRVFRRYSRFREMHKTLKLKYAELAALEFPPKKLFGNKDERVIAERRSHLEKYLRDFFS [T4R], for which the abundance fitness is -0.256 ± 0.043.

For the variant ETWIVFRRYSRFREMHKTLKLKYAELAALEFPPKKLFGNKDERVIAERRSHLEKYLRDFFS [T4I], the abundance fitness was -0.23 ± 0.079.

ETWCVFRRYSRFREMHKTLKLKYAELAALEFPPKKLFGNKDERVIAERRSHLEKYLRDFFS [T4C]: the abundance fitness amounted to 0.079 ± 0.055.

For ETWSVFRRYSRFREMHKTLKLKYAELAALEFPPKKLFGNKDERVIAERRSHLEKYLRDFFS [T4S], the abundance fitness turned out to be 0.109 ± 0.029.

As for ETWNVFRRYSRFREMHKTLKLKYAELAALEFPPKKLFGNKDERVIAERRSHLEKYLRDFFS [T4N], the abundance fitness is 0.308 ± 0.045.

With ETWAVFRRYSRFREMHKTLKLKYAELAALEFPPKKLFGNKDERVIAERRSHLEKYLRDFFS [T4A], the abundance fitness is -0.087 ± 0.057.

In the case of ETWYVFRRYSRFREMHKTLKLKYAELAALEFPPKKLFGNKDERVIAERRSHLEKYLRDFFS [T4Y], the abundance fitness is -0.139 ± 0.058.

As to ETWPVFRRYSRFREMHKTLKLKYAELAALEFPPKKLFGNKDERVIAERRSHLEKYLRDFFS [T4P], the abundance fitness was -0.102 ± 0.049.

As for ETWDVFRRYSRFREMHKTLKLKYAELAALEFPPKKLFGNKDERVIAERRSHLEKYLRDFFS [T4D], the abundance fitness is 0.178 ± 0.091.

On to ETWKVFRRYSRFREMHKTLKLKYAELAALEFPPKKLFGNKDERVIAERRSHLEKYLRDFFS [T4K], for which the abundance fitness was -0.15 ± 0.058.

On to ETWMVFRRYSRFREMHKTLKLKYAELAALEFPPKKLFGNKDERVIAERRSHLEKYLRDFFS [T4M], for which the abundance fitness was -0.077 ± 0.065.

ETWWVFRRYSRFREMHKTLKLKYAELAALEFPPKKLFGNKDERVIAERRSHLEKYLRDFFS [T4W]: the abundance fitness came out at 0.033 ± 0.062.

ETWQVFRRYSRFREMHKTLKLKYAELAALEFPPKKLFGNKDERVIAERRSHLEKYLRDFFS [T4Q]: the abundance fitness worked out at 0.119 ± 0.056.

As to ETWHVFRRYSRFREMHKTLKLKYAELAALEFPPKKLFGNKDERVIAERRSHLEKYLRDFFS [T4H], the abundance fitness was -0.406 ± 0.077.

As for ETWVVFRRYSRFREMHKTLKLKYAELAALEFPPKKLFGNKDERVIAERRSHLEKYLRDFFS [T4V], the abundance fitness is -0.319 ± 0.05.

For ETWEVFRRYSRFREMHKTLKLKYAELAALEFPPKKLFGNKDERVIAERRSHLEKYLRDFFS [T4E], the abundance fitness was determined as 0.223 ± 0.053.

For the variant ETWTVFFRYSRFREMHKTLKLKYAELAALEFPPKKLFGNKDERVIAERRSHLEKYLRDFFS [R7F], the abundance fitness came out at 0.078 ± 0.11.

For the variant ETWTVFQRYSRFREMHKTLKLKYAELAALEFPPKKLFGNKDERVIAERRSHLEKYLRDFFS [R7Q], the abundance fitness turned out to be 0.164 ± 0.097.

For ETWTVFHRYSRFREMHKTLKLKYAELAALEFPPKKLFGNKDERVIAERRSHLEKYLRDFFS [R7H], the abundance fitness came out at 0.225 ± 0.23.

Regarding ETWTVFPRYSRFREMHKTLKLKYAELAALEFPPKKLFGNKDERVIAERRSHLEKYLRDFFS [R7P], the abundance fitness is -0.161 ± 0.14.

For ETWTVFVRYSRFREMHKTLKLKYAELAALEFPPKKLFGNKDERVIAERRSHLEKYLRDFFS [R7V], the abundance fitness is -0.042 ± 0.056.

For ETWTVFSRYSRFREMHKTLKLKYAELAALEFPPKKLFGNKDERVIAERRSHLEKYLRDFFS [R7S], the abundance fitness came to 0.141 ± 0.077.

Take ETWTVFCRYSRFREMHKTLKLKYAELAALEFPPKKLFGNKDERVIAERRSHLEKYLRDFFS [R7C]: the abundance fitness came out at 0.084 ± 0.14.

As for ETWTVFNRYSRFREMHKTLKLKYAELAALEFPPKKLFGNKDERVIAERRSHLEKYLRDFFS [R7N], the abundance fitness was -0.131 ± 0.14.

For ETWTVFARYSRFREMHKTLKLKYAELAALEFPPKKLFGNKDERVIAERRSHLEKYLRDFFS [R7A], the abundance fitness was 0.022 ± 0.078.

On to ETWTVFTRYSRFREMHKTLKLKYAELAALEFPPKKLFGNKDERVIAERRSHLEKYLRDFFS [R7T], for which the abundance fitness is -0.02 ± 0.14.

ETWTVFGRYSRFREMHKTLKLKYAELAALEFPPKKLFGNKDERVIAERRSHLEKYLRDFFS [R7G]: the abundance fitness is 0.186 ± 0.045.

Regarding ETWTVFMRYSRFREMHKTLKLKYAELAALEFPPKKLFGNKDERVIAERRSHLEKYLRDFFS [R7M], the abundance fitness was -0.04 ± 0.092.

For ETWTVFKRYSRFREMHKTLKLKYAELAALEFPPKKLFGNKDERVIAERRSHLEKYLRDFFS [R7K], the abundance fitness was 0.227 ± 0.069.

Consider ETWTVFLRYSRFREMHKTLKLKYAELAALEFPPKKLFGNKDERVIAERRSHLEKYLRDFFS [R7L], for which the abundance fitness is -0.025 ± 0.068.
